Measured values reported in patent US20230357405A1 (published 2023).
Where a chain is given by its changes, count along the chain named. Blank lines part the entries; values can stand above or below the binder they belong to.

Key:
[1] = biological target: T1, Strep tagged recombinant human PD-1 (human, UniProt Q15116 25-167, limits assumed); assay: SPR Biacore T200, single cycle kinetics; Strep tagged PD-1 amine coupled to CM-5 (14 RU)
T1 construct: also called Strep tagged human PD-1; not shown: Strep tag
T1 sequence (Q15116 25-167 limits assumed): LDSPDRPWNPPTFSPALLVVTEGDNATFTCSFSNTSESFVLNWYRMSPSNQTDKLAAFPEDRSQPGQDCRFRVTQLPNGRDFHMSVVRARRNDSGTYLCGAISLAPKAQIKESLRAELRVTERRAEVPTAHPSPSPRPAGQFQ
Description: Single cycle kinetics assays were used to study the interaction between human PD-1 with Humabody® on a Biacore T200 instrument (GE Healthcare). Strep tagged recombinant human PD-1 was amine coupled to one flow cell of a CM-5 chip to create a low density surface (14 RU) using standard Biacore reagents. For the reference flow cell, a blank immobilisation was carried out. A five-point, three-fold dilution series of each Humabody® was made with a top concentration of 25 nM. The binding kinetics were followed by flowing the Humabody® over the chip surface in HBS EP+ buffer at a flow rate of 30 μl/min. The contact time for each of the association steps was 180 seconds and the dissociation step was 3300 seconds. The data was fitted to a 1:1 binding model after double reference subtraction using the Biacore T200 Evaluation software.

[2] = biological target: T2, cynomolgus PD-1 recombinant protein (cynomolgus); assay: HTRF binding assay; 2 nM PD-1, anti human-Fc cryptate and anti His-D2
T2 construct: also called cyno PD-1; cynomolgus PD-1 (Acro Biosystems cat no. PD-1-05254)
Description: Purified VH were tested for their ability to bind to human PD-1 (R&D Systems cat no. 1086-PD), cynomolgus PD-1 (Acro Biosystems cat no. PD-1-05254) and mouse PD-1 (R&D Systems cat no. 1021-PD) in an HTRF Binding assay format. All reagents and serially diluted VH were prepared in assay buffer containing PBS, 0.1% BSA and 0.4M Potassium Fluoride. Samples or assay buffer (non-specific binding) were incubated with 2 nM human/cynomolgus or mouse PD-1, 1 nM Anti human-Fc Cryptate PAb (Cisbio cat. no. 61HFCKLB) and 30 nM anti His-D2 (CisBio cat no 61HISDLA) in black 384-shallow well assay plates for a minimum of 3 hours at room temperature. Time-resolved fluorescent emission at 620 nm and 665 nm was measured following excitation at 337 nm on the BMG PHERAstar plate reader. The HTRF ratio were calculated ((665 nm emission/620 nm emission)*10000) and the data corrected for (non-specific binding) to give the specific binding signal.

B1: Humabody® 1.80 (VHH)
VHH: EVQLVESGGGLVKPGGSLRLSCAASGFTFSDSSMTWMRQAPGKGLEWVSYISSGGGVKFYADSVKGRFTISRDNAKNSLYLQMNSLRAEDTAVYYCAREAPLRLGESPHDAFDISGQGTMVTVSS
notes: human VH single domain antibody
- kon [1]: 176000 M⁻¹ s⁻¹

B2: Humabody® 1.1 (VHH)
VHH: B1 VHH with E1Q, S32Y, S33T, S53T, G56T, V57I, F59Y, A61T, E89D, S115W
notes: human VH single domain antibody; also called clone 1.1
- EC50 [2]: 6.3 nM

Continued, values first:

- EC50 [2]: 4.1 nM
B3: Humabody® 1.92 (VHH)
VHH: B1 VHH with S32E
notes: as for B1

- EC50 [2]: 0.75 nM
B4: Humabody® 1.57 (VHH)
VHH: B1 VHH with E1Q, S32N, K58I, E89D
notes: as for B1
